Source: patent publication US20190040142A1 (Genentech, published 2019)

B1: anti-KLB monoclonal antibody 4H7 (antibody, IgG1, V domains shown)
VH: QVQLQQSGPELVKPGASVKLSCKASGYTFTNYDINWVRQRPGQGLEWIGWIYPRDGSAKYNAKFKGKATLTVDTSSSTAYMELHSLTSEDSAVYFCARRPLYYGSTHWYFDVWGTGTTVTVSS
VL: DIVLTQSPASLAVSLGQRATISCKASQSVDYDGDSYMNWYQQKPGQPPKLLIYAASNLKSGIPARFSGSGSGTDFTLNIHPVEEEDAATYYCQQSNEDPRTFGGGTRLEIK
notes: hybridoma mouse IgG in the first screen; also called clone 4H7; 4H7 IgG
B2: anti-KLB monoclonal antibody 28B7 (antibody, IgG1, V domains shown)
VH: EVQLQQSGPELVQPGTSVKISCEASGYTFTDYYINWVKQSRGKSLEWIGDINPNNGDTTYNQKFKAKATLTVDRSSNTAYMELRSLTSEDSVVYYCARRFYSSPFDSWGQGTTLTVSS
VL: DIVMTQSPSSLAVSVGEKVTLSCKSGQSLLYSRNQKNYLAWYQQKPGQSPKLLISWASTRESGVPDRFTGSGSGTDFTLTISSVKTEDLAVYHCQQYYSYPYTFGGGTRLEIK
notes: also called clone 28B7; 28B7 IgG
B3: anti-KLB monoclonal antibody 2C12 (antibody, human IgG1, V domains shown)
VH: EVQLQQSGPGLVKPSQSLSLTCSVTGYSITSGYYWTWIRQFPGNKLEWMGYIKYDGGNYYNPSLRNRISITRDTSKNHFFLKFYSVTAEDTATYFCARGDYYASPYGAMDSWGQGTSVTVSS
VL: DIVMTQSPSSLSASLGDTITITCHASQDIDVWLSWYQQKPGNVPQLLISKSSILHTGVPSRFSGGGSGTGFTLTISSLQPEDIATYYCQQGLSYPFTFGSGTKLKIK
notes: hybridoma mouse IgG in the first screen; also called clone 2C12; 2C12 (human IgG1)
B4: anti-KLB antibody clone 4H7 in tri-chain IgG format (antibody)
chain 1: DIVLTQSPASLAVSLGQRATISCKASQSVDYDGDSYMNWYQQKPGQPPKLLIYAASNLKSGIPARFSGSGSGTDFTLNIHPVEEEDAATYYCQQSNEDPRTFGGGTRLEIKRGGGGSGGGGSGGGGSGGGGSQVQLQQSGPELVKPGASVKLSCKASGYTFTNYDINWVRQRPGQGLEWIGWIYPRDGSAKYNAKFKGKATLTVDTSSSTAYMELHSLTSEDSAVYFCARRPLYYGSTHWYFDVWGTGTTVTVSS
chain 2: not shown
notes: VL-linker-VH-CH1-CH2-CH3 (VLfH) plus a separate CL domain disulfide-bonded to CH1; also called 4H7 tcIgG; 4H7 tcIgG1; not shown: human IgG1 heavy chain constant region (CH1-hinge-CH2-CH3); monospecific tcIgG were made by c
B5: anti-KLB antibody clone 28B7 in tri-chain IgG format (antibody)
chain 1: DIVMTQSPSSLAVSVGEKVTLSCKSGQSLLYSRNQKNYLAWYQQKPGQSPKLLISWASTRESGVPDRFTGSGSGTDFTLTISSVKTEDLAVYHCQQYYSYPYTFGGGTRLEIKRGGGGSGGGGSGGGGSGGGGSEVQLQQSGPELVQPGTSVKISCEASGYTFTDYYINWVKQSRGKSLEWIGDINPNNGDTTYNQKFKAKATLTVDRSSNTAYMELRSLTSEDSVVYYCARRFYSSPFDSWGQGTTLTVSS
chain 2: not shown
notes: VL-linker-VH-CH1-CH2-CH3 (VLfH) plus a separate CL domain disulfide-bonded to CH1; also called 28B7 tcIgG; 28B7 tcIgG1; not shown: human IgG1 heavy chain constant region (CH1-hinge-CH2-CH3); monospecific tcIgG were made by c
B6: anti-KLB monoclonal antibody 23B3 (antibody, V domains shown)
VH: EVQLQESGPGLVKPSQSLSLTCSVTGYSITSGYYWNWIRQFPGNKLEWMGYIRYDGNSNYNPFLKNRVSITRDTSKNQFFLKLNSVTTEDTATYYCTRKGAYYSSFDALDYWGQGTSVTVSS
VL: DIVMTQSPSSMYASLGERVTISCKASQDIRSYLSWFQQKPGKSPKTLIYRANRLVDGVPSRFSGSGSGQDYSLTITSLEFGDVGLYYCLQYDEFPLTFGAGTKLKIE
notes: also called clone 23B3
B7: anti-KLB monoclonal antibody 12B8 (antibody, V domains shown)
VH: QIQLVQSGPELKKPGETAKISCKASGYAFSNYGMNWVKQAPGKDLKWMGWIDTDTGEATYTDDFKGRFVFSLETSASTAYLQINNLKNEDMATYFCAREEYGLFGFPYWGHGTLVTVSA
VL: DIQMTQSSSSFSVSLGDRVTITCKASEDIYNRLAWYQQKPGSAPRLLISAATSLETGVPSRFSGSGSGKDYTLSITSLQTEDVATYYCQQYWSNPLTFGAGTKLELK
notes: Mouse hybridoma antibody; tested as hybridoma supernatant, or recombinantly as mouse IgG2a or human IgG1, depending on the assay; also called clone 12B8; parental antibody 12B8

Key:
[1] = molecular target: T1, recombinant human KLB (soluble protein) (human, UniProt Q86Z14 53-997, limits assumed); experiment: SPR (BIAcore T200), antibody captured on Protein A chip, monomeric human KLB as analyte, 25 C, 1:1 Langmuir fit
T1 construct: also called monomeric human KLB; recombinant KLB
Description: (§1) For binding affinity determination of tcIgG and traditional IgG, surface plasmon resonance (SPR) measurements using a BIAcore T200 and ProteinA sensor chip was used and dilutions of monomeric human KLB as analyte were injected over the immobilized tcIgG or traditional IgG at 25° C. to determine monovalent affinities. Association rates (kon) and dissociation rates (koff) were calculated using a simple one-to-one Langmuir binding model. The equilibrium dissociation constant (Kd) was calculated as the ratio koff/kon.

[2] = molecular target: T2, Rat KLB (limits assumed); experiment: FACS, HEK293T cells expressing human/rat KLB chimeric proteins; summary table of + and - by epitope bin
T2 construct: also called rat Klotho-beta
T2 single chain: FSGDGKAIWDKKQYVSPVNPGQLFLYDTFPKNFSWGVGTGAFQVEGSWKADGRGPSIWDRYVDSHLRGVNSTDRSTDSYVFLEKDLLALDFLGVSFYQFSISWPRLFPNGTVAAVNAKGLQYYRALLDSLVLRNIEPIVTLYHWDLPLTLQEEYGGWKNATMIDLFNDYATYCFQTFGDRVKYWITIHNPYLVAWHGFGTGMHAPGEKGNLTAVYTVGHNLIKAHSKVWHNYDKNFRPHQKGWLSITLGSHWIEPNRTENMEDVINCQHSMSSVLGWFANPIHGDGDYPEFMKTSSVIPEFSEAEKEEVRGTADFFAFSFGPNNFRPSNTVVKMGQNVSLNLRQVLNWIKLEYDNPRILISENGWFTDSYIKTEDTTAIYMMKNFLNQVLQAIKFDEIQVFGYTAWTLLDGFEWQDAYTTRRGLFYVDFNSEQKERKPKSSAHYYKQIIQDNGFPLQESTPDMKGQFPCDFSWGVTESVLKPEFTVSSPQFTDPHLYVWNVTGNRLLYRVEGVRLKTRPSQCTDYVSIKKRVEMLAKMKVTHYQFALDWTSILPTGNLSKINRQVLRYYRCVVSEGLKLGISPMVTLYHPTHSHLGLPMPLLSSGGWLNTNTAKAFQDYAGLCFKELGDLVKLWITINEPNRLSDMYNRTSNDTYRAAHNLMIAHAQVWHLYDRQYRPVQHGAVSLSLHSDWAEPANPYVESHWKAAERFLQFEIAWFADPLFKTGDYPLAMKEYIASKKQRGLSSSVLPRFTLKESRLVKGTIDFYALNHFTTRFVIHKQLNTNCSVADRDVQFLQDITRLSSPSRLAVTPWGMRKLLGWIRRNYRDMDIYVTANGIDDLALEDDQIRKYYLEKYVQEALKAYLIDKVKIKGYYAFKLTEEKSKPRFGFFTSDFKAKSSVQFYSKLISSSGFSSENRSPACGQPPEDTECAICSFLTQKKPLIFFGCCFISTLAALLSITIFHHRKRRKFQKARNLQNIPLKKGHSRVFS

[3] = molecular target: T1, recombinant human KLB (soluble protein); experiment: SPR, Biacore T200, antibody captured on Protein A chip, monomeric human KLB as analyte, 25 C; mean ± range of two experiments
Description: as §1

[4] = molecular target: T1, recombinant human KLB (soluble protein); experiment: SPR, Biacore T200, antibody captured on Protein A chip, monomeric human KLB as analyte, 25 C; mean of two experiments
Description: as §1

[5] = molecular target: T2, Rat KLB; experiment: flow cytometry, HEK293T cells transiently expressing the construct, anti-human IgG-Alexa 488
[6] = molecular target: T3, human KLB expressed on cells (human, UniProt Q86Z14 53-1044); experiment: FACS, HEK293T cells expressing human/rat KLB chimeric proteins; summary table of + and - by epitope bin
T3 construct: also called hKLB; Klotho-beta

[7] = molecular target: T1, recombinant human KLB (soluble protein); experiment: binding affinity test of Example 7 (FIG. 21); method not restated, presumably the Biacore assay of Example 6; text of Example 7 (FIG. 21); Table 9 prints 2.06 ± 0.11 nM
Description: as §1

[8] = molecular target: B3; experiment: biolayer interferometry (Octet), anti-human Fc sensor -> human Ab1 -> no hKLB -> mouse Ab2
Description: Epitope binning experiments (FIGS. 11A-11B) were performed by BioLayer Inferometry in 8-channel or 16-channel mode using anti-mouse Fc or anti-human Fc capture biosensors on the Octet Red384 system (Pall Life Sciences, Menlo Park, Calif.). […] Epitope binning with anti-human Fc capture biosensors was done similarly.

[9] = molecular target: T3, human KLB expressed on cells; experiment: flow cytometry, HEK293T cells transiently expressing the construct, antibody at 2 µg/ml, anti-human IgG-Alexa 488

| Binder | kon [1] | Kd [3] | koff [3] | kon [3] | binding result [5] | further results |
| --- | --- | --- | --- | --- | --- | --- |
| B1 | 571000 M⁻¹ s⁻¹ | 0.78 nM | 0.000444 s⁻¹ | 571000 M⁻¹ s⁻¹ | – | binding result [2]: no binding (tested: not given) |
| B2 | 104000 M⁻¹ s⁻¹ | 2.65 nM | 0.000276 s⁻¹ | – | – | kon [4]: 104000 M⁻¹ s⁻¹; binding result [2]: no binding (tested: not given) |
| B3 | – | – | – | – | no binding (tested: 2 µg/ml (not on the sheet)) | binding result [6]: binds |
| B4 | 332000 M⁻¹ s⁻¹ | 1.29 nM | 0.000427 s⁻¹ | 332000 M⁻¹ s⁻¹ | – | – |
| B5 | 119000 M⁻¹ s⁻¹ | 2.06 nM | 0.000244 s⁻¹ | 117000 M⁻¹ s⁻¹ | – | Kd [7]: 2.05 nM |
| B6 | – | – | – | – | no binding (tested: 2 µg/ml (not on the sheet)) | binding result [8]: no binding; binding result [6]: binds |
| B7 | – | – | – | – | no binding (tested: 2 µg/ml (not on the sheet)) | binding result [9]: binds |
